Patent publication US20200292555

Target: T1, Ac-DEVD-CHO
T1 chain: DEVD

B1: recombinant, purified active CASP10 (protein)
chain: VKTFLEALPQESWQNKHAGSNGNRATNGAPSLVSRGMQGASANTLNSETSTKRAAVYRMNRNHRGLCVIVNNHSFTSLKDRQGTHKDAEILSHVFQWLGFTVHIHNNVTKVEMEMVLQKQKCNPAHADGDCFVFCILTHGRFGAVYSSDEALIPIREIMSHFTALQCPRLAEKPKLFFIQACQGEEIQPSVSIEADALNPEQAPTSLQDSIPAEADFLLGLATVPGYVSFRHVEEGSWYIQSLCNHLKKLVPRMLKFLEKTMEIRGRKRTVWGAKQISATSLPTAISAQTPRPPMRRWSSVS
B1 was tested, and the “activity of recombinant, purified active CASP10 (500 nM; fluorometric AEVD-AMC substrate in MDA-MB-231 lysate)” value was “DEVD-CHO ... (20 µM) inhibited the activity of CASP10”.
